According to US20160264680A1 (INSERM INSTITUT NATIONAL DE LA SANTE ET DE LA RECHERCHE …, published 2016):

Experiments:
[1] = biological target: wild type human KIT on cells (TF-1, Ba/F3-KIT, UT-7/EPO) (human) (UniProt P10721); experiment: cell-based or functional assay
[2] = biological target: T1, recombinant soluble human KIT extracellular domain (KIT-ECD), C-terminal 6His tag (human, UniProt P10721 26-509, biotinylated in the yeast display assays (sites not given)); experiment: flow cytometry of yeast displaying the scFv with biotinylated KIT-ECD, streptavidin-PE
T1 construct: range 26-509; Made in High Five insect cells with a baculovirus, purified on Ni-NTA; major protein of 60 kD; Monovalent; also called c-KIT ECD; recombinant KIT
T1 sequence (P10721 other isoform, or with tags, fused parts or gaps limits assumed): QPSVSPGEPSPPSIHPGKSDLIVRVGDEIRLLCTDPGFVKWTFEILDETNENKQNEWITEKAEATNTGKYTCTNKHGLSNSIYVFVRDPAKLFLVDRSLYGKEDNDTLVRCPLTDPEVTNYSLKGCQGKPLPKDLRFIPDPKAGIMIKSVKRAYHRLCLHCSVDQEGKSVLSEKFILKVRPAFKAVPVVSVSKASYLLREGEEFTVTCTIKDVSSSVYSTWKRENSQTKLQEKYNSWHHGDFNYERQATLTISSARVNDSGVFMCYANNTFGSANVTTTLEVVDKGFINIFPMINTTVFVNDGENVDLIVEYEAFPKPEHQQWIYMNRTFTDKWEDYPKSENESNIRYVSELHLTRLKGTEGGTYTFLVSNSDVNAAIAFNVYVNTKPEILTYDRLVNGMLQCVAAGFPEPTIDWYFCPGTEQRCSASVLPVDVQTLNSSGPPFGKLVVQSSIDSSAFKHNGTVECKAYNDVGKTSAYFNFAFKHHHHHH

[3] = biological target: T1, recombinant soluble human KIT …; experiment: soluble scFv ELISA on KIT-ECD
[4] = biological target: T2, human KIT V560G D816V as expressed on HMC1.2 mastocytoma cells (human, UniProt P10721 26-976); experiment: FACS on HMC1.2 cells, soluble scFv from concentrated bacterial supernatant, detected with anti-c-myc and anti-mouse Ig-PE [panel D]
T2 construct: whole, on cells; also called endogenous KIT on HMC1.2
T2 sequence (P10721 26-976 V560G/D816V): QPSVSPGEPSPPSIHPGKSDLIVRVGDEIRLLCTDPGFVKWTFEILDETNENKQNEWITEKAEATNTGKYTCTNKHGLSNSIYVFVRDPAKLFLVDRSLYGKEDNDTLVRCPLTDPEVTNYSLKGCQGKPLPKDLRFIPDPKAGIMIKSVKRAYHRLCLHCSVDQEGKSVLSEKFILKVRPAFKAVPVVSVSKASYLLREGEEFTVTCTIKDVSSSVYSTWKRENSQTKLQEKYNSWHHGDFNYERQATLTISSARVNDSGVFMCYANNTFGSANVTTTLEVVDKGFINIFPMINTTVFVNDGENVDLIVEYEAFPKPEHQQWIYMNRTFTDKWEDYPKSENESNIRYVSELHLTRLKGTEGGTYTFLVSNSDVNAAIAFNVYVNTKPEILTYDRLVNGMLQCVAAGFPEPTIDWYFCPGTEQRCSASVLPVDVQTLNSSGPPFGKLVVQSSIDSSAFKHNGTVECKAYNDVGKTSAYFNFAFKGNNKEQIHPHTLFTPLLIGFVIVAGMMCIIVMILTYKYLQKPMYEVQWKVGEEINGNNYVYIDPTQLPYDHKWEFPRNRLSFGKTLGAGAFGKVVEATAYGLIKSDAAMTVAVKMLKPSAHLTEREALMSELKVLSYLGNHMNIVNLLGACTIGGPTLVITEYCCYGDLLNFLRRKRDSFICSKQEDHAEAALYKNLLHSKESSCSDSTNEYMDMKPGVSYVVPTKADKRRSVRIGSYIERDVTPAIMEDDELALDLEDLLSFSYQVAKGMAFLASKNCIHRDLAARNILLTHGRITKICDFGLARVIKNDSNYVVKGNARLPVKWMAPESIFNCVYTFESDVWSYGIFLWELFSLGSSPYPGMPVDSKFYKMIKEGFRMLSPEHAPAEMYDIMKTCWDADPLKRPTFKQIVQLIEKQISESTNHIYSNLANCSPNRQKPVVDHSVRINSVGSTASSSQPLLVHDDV
Description: (D) FACS analysis of scFv binding to HMC1.2 cells. ScFvs were induced with IPTG 1 mM overnight at 25° C. from TG1 bacterial containing pHEN phagemid. Supernatant was collected, concentrated on Amicon ultra-4 centrifugal units and incubated with HMC1.2 cells at 4° C. ScFv binding to cells was detected with an anti-c-myc antibody and anti-mouse immunoglobulins conjugated to phycoerythrin. Fluorescence was measured by FACS.
Two hundred thousand HMC1.2 cells were resuspended in 100 μL of PBS-1% FBS at 4° C. (FACS buffer). One hundred μL of culture supernatant was added to the cells during 2 hours at 4° C. Cells were washed with FACS buffer and scFv binding to cells was detected with an anti-c-myc antibody (9E10; Sigma) followed by goat anti-mouse immunoglobulins (Ig) conjugated to PE (Beckton Dickinson).

wild type human KIT on cells (TF-1, Ba/F3-KIT, UT-7/EPO) (human), sequence (P10721 26-976): as the sequence (P10721 26-976 V560G/D816V) above, with G535V, V791D counted along it

Q: For “mouse SCF in CHO-KL culture supernatant (from UniProt P20826 26-190) (ligand)”, which KIT surface down-regulation on UT-7/EPO cells after 1 hour (FACS with 104D2) [1] is on record?
A: Its KIT surface down-regulation on UT-7/EPO cells after 1 hour (FACS with 104D2) is 70%.

B1: affinity matured scFv-2D1C7 displayed on yeast (scFv)
chain: MAQVKLQESGGGLVQPGGSLRLSCAASGFTFDSYAMSWVRQAPGKGLEWVSYITSSSSTIYYVDSVKGRFTISRDNAKNSLYLQMNSLRDEDTAVYYCARLRNSEGYWYFDLWGRGTLVTVSSGGGGSGGGGSGGGGSQSVLTQDPAVSVALGQTVRITCQGDSLRSYYASWYQQKPGQAPLLVMYGENIRPSGIPDRFSGSTSGNSASLTITGAQAEDEADYYCNSRDSSGNHLNWVFGGGTKLTVLG
Q: With B1 as the molecule, how does the Kd [2] read?
A: Its Kd is 4.2 nM.

B2: scFv 2D1, soluble monovalent scFv (scFv)
scFv: MAQVKLQESGGGLVQPGGSLRLSCAASGFTFDSYAMSWVRQAPGKGLEWVSYITSSSSTIYYVDSVKGRFTISRDNAKNSLYLQMNSLRDEDTAVYYCARLRNSEGYWYFDLWGRGTLVTVSSGGGGSGGGGSGGGGSQSALTQDPAVSVALGQTVRITCQGDSLRSYFASWYQQKPGQAPLLVMYGQNIRPSGIPDRFSGSSSGNSASLTITGAQAEDEADYYCNSRDSSYNHWVFGGGTKLTVLG
notes: Expressed from phagemid pHEN in E. coli TG1, used as culture supernatant
Q: Does B2 bind [3]?
A: Result: binds

Q: Does B2 bind [4]?
A: Result: binds

B3: affinity matured scFv-3G1A2 displayed on yeast (scFv)
chain: MAQVQLVESWGGVAQPGRSLRLSCAASGFTFSSFAMHWVRQAPGKGLEWVAVTSYDGSNEYYADSVKGRFTISRDNSKNTLYLQMNSLRAEDTAVYYCAKAMVRGVTFGDLDYWGQGTLVTVSSGGGGSGGGGSGGGGSSELTQDPAVSVALGQTVRKTCQGDSLKSYYASWYQQKPGQAPVLVIYGENSRPSGIPDRFSGSSSGNTASLTITGAQAEDEADYYCCSRATGGYHRIFGGGTKLTVLG
Q: For B3, which Kd [2] is on record?
A: The Kd was 1.7 nM.

B4: scFv 3G1, soluble monovalent scFv (scFv)
scFv: MAQVQLVESWGGVAQPGRSLRLSCAASGFTFSSFAMHWVRQAPGKGLEWVAVTSYDGSNEYYADSVKGRFTISRDNSKNTLYLQMNSLRAEDTAVYYCAKAMVRGVTFGDLDYWGQGTLVTVSSGGGGSGGGGSGGGGSSELTQDPAVSVALGQTVRITCQGDSLRSYYASWYQQKPEQAPVLVIYGENSRPSGIPDRFSGSSSGNTASLTITGAQAEDEADYYCNSRDSSGTHLRVFGGGTKLTVLG
notes: as for B2
Q: Which results are given for B4?
A: binding result [3]: binds; binding result [4]: binds
